Data from patent US20120122107A1 (AARHUS UNIVERSITET, published 2012).

How the values were obtained:
[1] = molecular target: T1, recombinant mannan-binding lectin (UniProt P11226 21-248); assay: affinity chromatography on rMBL-coupled beads
T1 construct: Oligomeric collectin; also called rMBL; MBL

BSA = molecular target: T2, BSA (UniProt P02769 25-607); assay: SPR (BIAcore 3000), BSA-coated surface
T2 construct: also called BSA-coated surface
Description: Using SPR we determined the strength of the interaction between MAp44 and MBL, and compared it to that of MASP-3 and MBL. The purity of the rMBL has been reported before and the rMAp44 and rMASP-3 preparations were deemed pure by silver staining of SDS-PAGE gels (FIG. 4A). MBL was coupled to SPR chips at two different densities. An SPR chip, activated and blocked, was used for subtraction of the bulk refractive index background. A BSA-coated surface served as an extra background control, which gave no higher signal than the blank surface for both MASP-3 and MAp44. […] The measurements at the other coupling density of MBL were in agreement for both MASP-3 and MAp44. The calculated KDs were similar to the 0.8 nM reported for the binding of MASP-2 to MBL.
The SPR experiments were similar to those reported (7, 8). Using a BIAcore 3000 instrument (GE Healthcare®), binding of either rMASP-3 or rMAp44 was measured on 10940 RU of rMBL immobilized on a CM5 sensor chip (30 μg rMBL/ml used for derivatization), at a flow rate of 5 μl/min. Equivalent volumes of rMASP-3 and rMAp44 were injected at concentrations from 1 nM to 30 nM. Data were analyzed by global fitting to a 1:1 Langmuir binding model for several concentrations simultaneously using the BIAevaluation 4.1 software (GE Healthcare®).

T1 sequence (P11226 21-248 limits assumed): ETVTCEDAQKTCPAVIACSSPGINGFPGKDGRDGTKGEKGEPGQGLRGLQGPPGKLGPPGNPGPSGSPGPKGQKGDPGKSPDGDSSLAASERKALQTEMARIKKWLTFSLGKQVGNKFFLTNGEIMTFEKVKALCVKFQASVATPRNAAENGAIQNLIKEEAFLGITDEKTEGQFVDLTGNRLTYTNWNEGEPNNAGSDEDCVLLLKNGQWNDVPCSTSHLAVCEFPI
T2 sequence (P02769 25-607 limits assumed): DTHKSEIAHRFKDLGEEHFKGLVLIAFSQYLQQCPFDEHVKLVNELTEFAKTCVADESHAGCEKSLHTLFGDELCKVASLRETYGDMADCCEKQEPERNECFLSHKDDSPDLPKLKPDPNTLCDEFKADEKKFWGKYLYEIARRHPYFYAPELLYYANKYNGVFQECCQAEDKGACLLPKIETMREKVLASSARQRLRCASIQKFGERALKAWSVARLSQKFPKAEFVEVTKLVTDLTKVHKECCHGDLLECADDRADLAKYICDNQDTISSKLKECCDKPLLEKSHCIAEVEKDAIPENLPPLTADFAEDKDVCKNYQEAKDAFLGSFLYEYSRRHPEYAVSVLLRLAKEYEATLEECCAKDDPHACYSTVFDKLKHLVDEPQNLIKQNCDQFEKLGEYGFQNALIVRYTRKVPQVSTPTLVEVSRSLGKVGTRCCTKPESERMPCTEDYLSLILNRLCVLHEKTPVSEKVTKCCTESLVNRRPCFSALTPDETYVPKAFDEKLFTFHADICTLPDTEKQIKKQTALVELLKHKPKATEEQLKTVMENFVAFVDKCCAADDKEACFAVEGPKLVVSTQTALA

binding result [1]	binding result (BSA)	Binder
binds	–	recombinant MAp19 (other, UniProt O00187-2 16-185, looked up, also called rMAp19; rMAP19) TPLGPKWPEPVFGRLASPGFPGEYANDQERRWTLTAPPGYRLRLYFTHFDLELSHLCEYDFVKLSSGAKVLATLCGQESTDTERAPGKDTFYSLGSSLDITFRSDYSNEKPFTGFEAFYAAEDIDECQVAPGEAPTCDHHCHNHLGGFYCSCRAGYVLHRNKRTCSEQSL
–	no binding	recombinant MAp44 (mannan-binding lectin-associated protein of 44 kDa) (other, Made by transient expression of the MAp44 cDNA (imaGenes clone IRAKp961F1682Q) in 293F cells and purified on rMBL-coupled beads; also called rMAp44; rMAP44) HTVELNNMFGQIQSPGYPDSYPSDSEVTWNITVPDGFRIKLYFMHFNLESSYLCEYDYVKVETEDQVLATFCGRETTDTEQTPGQEVVLSPGSFMSITFRSDFSNEERFTGFDAHYMAVDVDECKEREDEELSCDHYCHNYIGGYYCSCRFGYILHTDNRTCRVECSDNLFTQRTGVITSPDFPNPYPKSSECLYTIELEEGFMVNLQFEDIFDIEDHPEVPCPYDYIKIKVGPKVLGPFCGEKAPEPISTQSHSVLILFHSDNSGENRGWRLSYRAAGNECPELQPPVHGKIEPSQAKYFFKDQVLVSCDTGYKVLKDNVEMDTFQIECLKDGTWSNKIPTCKKNEIDLESELKSEQVTE
